Experimental findings from the RNAGym collection of RNA variant scans (doi:10.7554/elife.90254) are described below.

B1: LINE1-full (parent)
chain: UACGUAGGUGGUUUUCCCCUGAUAGUGCUAAGGGGGCCUGGAAGUUUGGACUGGGCAGAGCUCAACACAGCGUGGCAAAGUGGCUGUGGCUAGACUGCCUCUCUGGAUUCCUCGUCACUCAGCAGGGCAUCUCUGAGAGAAAUGCC

The variants in this series derive from B1. The experiment in a line: self-cleavage, relative activity (ratio to wild type); higher = more cleavage; in vitro, sequencing; the parent is a self-cleaving ribozyme.
In the case of UACGUAGGUGGUUUUCCCCUGAUAGUGCUAAGGAGGCCUGGAAGUUUGGACUGGGCAGGGCUCAACACAGCGUGGCAAAGUGGCUGUGGCUAGACUGCCUCUCUGGAUUCCUCGUCACUCAGCAGGGCAUCUCUGAGAGAAAUGCC [G34A A59G], the self-cleavage amounted to 0.07. In the case of UACGUAGGUGGUUUUCCCCUGAUAGUGCUAAGUGGGCCUGGAAGUUUGGACUGGGCAGAGCUCAACACAGCGUGGCAAAGUGGCUGUGGCUAGACUGCCUCUCUGGAUUCCUCGACACUCAGCAGGGCAUCUCUGAGAGAAAUGCC [G33U U115A] it was 1.38; in that of UACGUAGGUGGUUUUCCCCUGAUAGUGCUAAGGAGGCCUGGAAGUUUGGACUGGGCAGAGCUCAACCCAGCGUGGCAAAGUGGCUGUGGCUAGACUGCCUCUCUGGAUUCCUCGUCACUCAGCAGGGCAUCUCUGAGAGAAAUGCC [G34A A67C], 0.03. To UACGUAGGUGGUUUUCCCCUGAUAGUGCUAAGUGGGCCUGGAAGUUUGGACUGGGCAGAGCUCAACACAGCGUGUCAAAGUGGCUGUGGCUAGACUGCCUCUCUGGAUUCCUCGUCACUCAGCAGGGCAUCUCUGAGAGAAAUGCC [G33U G75U] belongs 0.91.

For the variant UACGUAGGUGGUUUUCCCCUGAUAGUGCUAAGUGGGCCUGGAAGUUUGGACUGGGCAGAGCUCAACACAGCGAGGCAAAGUGGCUGUGGCUAGACUGCCUCUCUGGAUUCCUCGUCACUCAGCAGGGCAUCUCUGAGAGAAAUGCC [G33U U73A], the self-cleavage is 1.38. To UACGUAGGUGGUUUUCCCCUGAUAGUGCUAAGUGGGCCUGGAAGUUUGGACUGGGCAGAGCUCAACACAGCGUGGCAAAGUGGCUGUGGCUAGACUGCCUCUCUGGAUUCCUCGUCACUCAGCAGGGCAUCUCUGAGAGAAAUACC [G33U G144A] belongs 1.21; to UACGUAGGUGGUUUUCCCCUGAUAGUGCUAAGUGGGCCUGGAAGUUUGGACUGGGCAGAGCCCAACACAGCGUGGCAAAGUGGCUGUGGCUAGACUGCCUCUCUGGAUUCCUCGUCACUCAGCAGGGCAUCUCUGAGAGAAAUGCC [G33U U62C], 0.04; to UACGUAGGUGGUUUUCCCCUGAUAGUGCUAAGUGGGCCUGGAAGUUUGGACUGGGCAGAGCUCAACACAGCGUGGCAAAGUGGCUGUGGCUAGACUGCCUCUCUGGAUUCCUCGUCACCCAGCAGGGCAUCUCUGAGAGAAAUGCC [G33U U119C], 1.19. Consider UACGUAGGUGGUUUUCCCCUGAUAGUGCUAAGGAGGCCUGGAAGUUUGGGCUGGGCAGAGCUCAACACAGCGUGGCAAAGUGGCUGUGGCUAGACUGCCUCUCUGGAUUCCUCGUCACUCAGCAGGGCAUCUCUGAGAGAAAUGCC [G34A A50G], for which the self-cleavage is 0.87. To UACGUAGGUGGUUUUCCCCUGAUAGUGCUAAGGAGGCCUGGAAGUUUGGUCUGGGCAGAGCUCAACACAGCGUGGCAAAGUGGCUGUGGCUAGACUGCCUCUCUGGAUUCCUCGUCACUCAGCAGGGCAUCUCUGAGAGAAAUGCC [G34A A50U] belongs 0.38; to UACGUAGGUGGUUUUCCCCUGAUAGUGCUAAGUGGGCCUGGAAGUUUGGACUGGGCAGAGCUCAACACAGCGUGGCAAAGUGGCUGUGGCUAGACUGCCUCUCUGGAUUCCUCGUCACUCAGCAGCGCAUCUCUGAGAGAAAUGCC [G33U G126C], 1.21. To UACGUAGGUGGUUUUCCCCUGAUAGUGCUAAGUGGGCCUGGAAGUUUGGACUGGGCAGAGCUCAACACAGCGUGGCAAAGUGGCCGUGGCUAGACUGCCUCUCUGGAUUCCUCGUCACUCAGCAGGGCAUCUCUGAGAGAAAUGCC [G33U U85C] belongs 0.06; to UACGUAGGUGGUUUUCCCCUGAUAGUGCUAAGGAGGCCUGGAAGUUUGGACUGGGCCGAGCUCAACACAGCGUGGCAAAGUGGCUGUGGCUAGACUGCCUCUCUGGAUUCCUCGUCACUCAGCAGGGCAUCUCUGAGAGAAAUGCC [G34A A57C], 0.07; to UACGUAGGUGGUUUUCCCCUGAUAGUGCUAAGUGGGCCCGGAAGUUUGGACUGGGCAGAGCUCAACACAGCGUGGCAAAGUGGCUGUGGCUAGACUGCCUCUCUGGAUUCCUCGUCACUCAGCAGGGCAUCUCUGAGAGAAAUGCC [G33U U39C], 1.16. As for UACGUAGGUGGUUUUCCCCUGAUAGUGCUAAGUGGGCCUGGAAGUUUGGACUGGGCAGAGCUCAACACAGCGUGGCAAAGUGGCUGCGGCUAGACUGCCUCUCUGGAUUCCUCGUCACUCAGCAGGGCAUCUCUGAGAGAAAUGCC [G33U U87C], the self-cleavage is 0.09. With UACGUAGGUGGUUUUCCCCUGAUAGUGCUAAGUGGGCCUGGAAGUUUGGACUGGGCAGAGCUCAACACAGCGUGGCAAAGUGGCUGUGGCUAGACUGCCUCUCCGGAUUCCUCGUCACUCAGCAGGGCAUCUCUGAGAGAAAUGCC [G33U U104C], the self-cleavage was determined as 1.62.

As to UACGUAGGUGGUUUUCCCCUGAUAGUGCUAAGUGGGCCUGGAAGUUUGGACUGGGCAGAGCUCAACACAGCGUGGCAAAGUGGCUGUGGCUAGACUGCCUCUCAGGAUUCCUCGUCACUCAGCAGGGCAUCUCUGAGAGAAAUGCC [G33U U104A], the self-cleavage worked out at 0.93. In the case of UACGUAGGUGGUUUUCCCCUGAUAGUGCUAAGUGGGCCUGGAAGUUUGGACUGGGCAGAGCUCAACACAGCGUGGCAAAGUGGCUGUGGCUAGACUGCCUCUCUGGAUUCCUCGUCACUCAGCAGGGCAUCGCUGAGAGAAAUGCC [G33U U132G], the self-cleavage worked out at 1.74.

As to UACGUAGGUGGUUUUCCCCUGAUAGUGCUAAGUGGGCCUGGAAGUUUGGACUGGGCAGAGCUCAACACAGCGUGGCAAAGUGGCUGUGGCUAGACCGCCUCUCUGGAUUCCUCGUCACUCAGCAGGGCAUCUCUGAGAGAAAUGCC [G33U U96C], the self-cleavage was determined as 0.17. To UACGUAGGUGGUUUUCCCCUGAUAGUGCUAAGUGGGCCUGGAAGUUUGGACUGGGCAGAGCUCAACACAGCGUGGCAAAGUGGCUGUGGCUAGACAGCCUCUCUGGAUUCCUCGUCACUCAGCAGGGCAUCUCUGAGAGAAAUGCC [G33U U96A] belongs 0.06.
